{
  "source": "paper PMC7300195",
  "about": "(2020)",
  "binders": {"B1": {"name": "m102.4 monoclonal antibody (HeV G-specific antibody), human IgG1/kappa (antibody, V domains shown)", "VH": "EVQVIQSGADVKKPGSSVKVSCKSSGGTFSKYAINWVRQAPGQGLEWMGGIIPILGIANYAQKFQGRVTITTDESTSTAYMELSSLRSEDTAVYYCARGWGREQLAPHPSQYYYYYYGMDVWGQGTTVTVSS", "VL": "EIVMTQSPGTLSLAPGERATLSCWASQSVRNNYLAWYQQKPGQAPRLVIYNGSTRATGIPDRFSGSGSGTDFTLTISRLDPEDFAVYYCQQYGNSRRVTFGGGTKVEIK"}},
  "test_in_all_cases": "BLI",
  "key": {"[1]": {"biological_target": "NiV G trimer: NiV G head domain residues 172-602 coupled to an N-terminal foldon domain ( | Nipah virus (Malaysia), UniProt Q9IH62 172-602)"}, "[2]": {"biological_target": "NiV G ferritin 24-mer nanoparticle: NiV G ectodomain residues 172-602 linked to the C-terminus of fe (Nipah virus (Malaysia), UniProt Q9IH62 172-602)"}, "[3]": {"biological_target": "hexameric NiV G: two G ectodomain headgroups linked by a foldon trimerization domain via short glycine linkers (Nipah virus (Malaysia) | )"}, "[4]": {"biological_target": "Mono G"}, "[5]": {"biological_target": "Stalk G"}},
  "data": [
    {"binder": "B1", "values": [
      {"measurement": "Kd", "setting": "[1]", "value": 153, "unit": "nM"},
      {"measurement": "koff", "setting": "[1]", "value": 0.0857, "unit": "s⁻¹"},
      {"measurement": "Kd", "setting": "[2]", "value": 17.8, "unit": "nM"},
      {"measurement": "koff", "setting": "[2]", "value": 0.0279, "unit": "s⁻¹"},
      {"measurement": "Kd", "setting": "[3]", "value": 86.2, "unit": "nM"},
      {"measurement": "koff", "setting": "[3]", "value": 0.0596, "unit": "s⁻¹"},
      {"measurement": "Kd", "setting": "[4]", "value": 402, "unit": "nM"},
      {"measurement": "koff", "setting": "[4]", "value": 0.131, "unit": "s⁻¹"},
      {"measurement": "Kd", "setting": "[5]", "value": 112, "unit": "nM"},
      {"measurement": "koff", "setting": "[5]", "value": 0.0849, "unit": "s⁻¹"}
    ]}
  ]
}
